The text below walks through data of patent EP4755916A1.

Assay [1] has as its target human BTN3A1 expressed on HEK293 cells (human) (UniProt O00481). Briefly: flow cytometry, HEK293 cells transiently expressing human BTN3A1, B cell supernatant. (A flow cytometer gives signals particle by particle.)
Assay [2] deals with human BTN3A1 recombinant protein with his tag (h-BTN3A1-his) (human) (UniProt O00481). Briefly: ELISA, plate coated with h-BTN3A1-his 1 ug/mL, B cell supernatant.
Assay [3] concerns the target BTN3A protein on SKOV-3 cells. Put plainly: cell-based or functional assay.

human BTN3A1 expressed on HEK293 cells (human), sequence (O00481 30-513): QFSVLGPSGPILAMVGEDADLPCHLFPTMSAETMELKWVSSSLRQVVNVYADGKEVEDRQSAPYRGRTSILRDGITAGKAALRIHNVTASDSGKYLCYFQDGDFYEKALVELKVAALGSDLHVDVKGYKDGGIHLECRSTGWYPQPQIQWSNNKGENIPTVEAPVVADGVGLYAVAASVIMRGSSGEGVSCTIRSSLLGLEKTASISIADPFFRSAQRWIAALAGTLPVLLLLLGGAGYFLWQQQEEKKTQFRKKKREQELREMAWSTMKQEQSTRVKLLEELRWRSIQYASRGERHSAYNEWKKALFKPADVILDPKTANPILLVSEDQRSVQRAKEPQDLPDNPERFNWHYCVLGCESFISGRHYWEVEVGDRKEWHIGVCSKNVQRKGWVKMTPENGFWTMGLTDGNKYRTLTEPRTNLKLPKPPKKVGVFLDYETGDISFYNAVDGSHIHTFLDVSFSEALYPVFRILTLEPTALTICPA
human BTN3A1 recombinant protein with his tag (h-BTN3A1-his) (human), sequence (O00481 30-254 limits assumed): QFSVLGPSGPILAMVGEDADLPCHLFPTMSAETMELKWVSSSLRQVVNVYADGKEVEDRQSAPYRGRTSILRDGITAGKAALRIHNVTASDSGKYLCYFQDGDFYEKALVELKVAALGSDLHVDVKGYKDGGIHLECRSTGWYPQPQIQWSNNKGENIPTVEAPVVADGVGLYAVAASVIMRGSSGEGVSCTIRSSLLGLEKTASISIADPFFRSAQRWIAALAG

B1: anti-BTN3A1 rabbit-derived monoclonal antibody r20A3 (antibody, V domains shown)
VH: QSVEESGGRLVTPGTPLTLTCTASGFTINNYYMNWVRQAPGKGLEWIGIIYGSDNTYYASWAKGRFTISKTSTTVDLIMTSPTTEDTATYFCVRNLDYSSAYFHIWGPGTLVTVSS
VL: QVLTQTPSPVSAAVGGTVSISCQASQSVYNNNRLAWYQQKPGQPPNLLIYEASKLASGVPSRFKGSGSGTQFTLIISEVQCEDAATYYCQGYYSGFIYPFGGGTEVVVK
In assay [1], B1 had an MFI of 190000 MFI and a Percentage (%) of 98.3%. Moreover, the ELISA (OD 450) in assay [2] is 2.1 OD450.

B2: 20A3-H2L2 (antibody, human IgG1, kappa)
heavy: EVQLVESGGGLVQPGGSLRLSCAASGFTINNYYMNWVRQAPGKGLEWVSIIYGSDNTYYASWAKGRFTISKDNSKNTVYLQMNSLRAEDTAVYYCVRNLDYSSAYFHIWGQGTLVTVSSASTKGPSVFPLAPSSKSTSGGTAALGCLVKDYFPEPVTVSWNSGALTSGVHTFPAVLQSSGLYSLSSVVTVPSSSLGTQTYICNVNHKPSNTKVDKRVEPKSCDKTHTCPPCPAPEFEGGPSVFLFPPKPKDTLMISRTPEVTCVVVDVSHEDPEVKFNWYVDGVEVHNAKTKPREEQYNSTYRVVSVLTVLHQDWLNGKEYKCKVSNKALPASIEKTISKAKGQPREPQVYTLPPSREEMTKNQVSLTCLVKGFYPSDIAVEWESNGQPENNYKTTPPVLDSDGSFFLYSKLTVDKSRWQQGNVFSCSVMHEALHNHYTQKSLSLSPGK
light: DIQLTQSPSSLSASVGDRVTITCQASQSVYNNNRLAWYQQKPGKPPKLLIYEASKLASGVPSRFSGSGSGTDFTLTISSLQPEDVATYYCQGYYSGFIYPFGGGTKVEIKRTVAAPSVFIFPPSDEQLKSGTASVVCLLNNFYPREAKVQWKVDNALQSGNSQESVTEQDSKDSTYSLSSTLTLSKADYEKHKVYACEVTHQGLSSPVTKSFNRGEC
In assay [3], B2 showed an EC50 of IFNγ secretion by Vγ9Vδ2 T cells co-cultured with SKOV-3 cells of 0.284 nM and a Maximum IFNγ (pg/mL), Vγ9Vδ2 T cells co-cultured with SKOV-3 cells of 2470 pg/mL.

B3: anti-BTN3A1 rabbit-derived monoclonal antibody r17G4 (antibody, V domains shown)
VH: QSLEESGGRLVTPGTPLTLTCTASGFSLNDYYITWVRQAPGKGLEWIGVIYGSSNTVYASWAKGRFTISKTSTMVDLRITSPTTEDTATYFCARGYLASSADIWGPGTLVTVSL
VL: QVLTQTPSPVSAAVGGTVTINCQSSQSVYNNNRLAWYQQKPGQPPKLLIYDASTLASGVPSRFKGSGSGTDFTLTISDLECADAATYYCQTYYSGYIWAFGGGTEVVVK
In assay [1], B3 yielded an MFI of 444000 MFI and a Percentage (%) of 99%. In addition, the ELISA (OD 450) in assay [2] is 1.84 OD450.
